Laboratory results reported in patent publication US20050182242A1, “Global analysis of protein activities using proteome chips” (priority 2001, published 2005).

Tested on: PI(4)P liposomes
Experiment: Yeast proteome chip probed with PI(4)P liposomes
Conditions: liposome binding signal on yeast proteome chip, Cy3-streptavidin detection

B1: MY04: yeast class V myosin heavy chain, GST-HisX6 fusion (protein, UniProt P32492 1-1471, looked up)
Myosin-4: MSFEVGTKCWYPHKEQGWIGGEVTKNDFFEGTFHLELKLEDGETVSIETNSFENDDDHPTLPVLRNPPILESTDDLTTLSYLNEPAVLHAIKKRYMNGQIYTYSGIVLIAANPFDKVDHLYSREMIQNYSSKRKDELEPHLFAIAEEAYRFMVHEKANQTVVVSGESGAGKTVSAKYIMRYFASVQESNNREGEVEMSQIESQILATNPIMEAFGNAKTTRNDNSSRFGKYLQILFDENTTIRGSKIRTYLLEKSRLVYQPETERNYHIFYQILEGLPEPVKQELHLSSPKDYHYTNQGGQPNIAGIDEAREYKITTDALSLVGINHETQLGIFKILAGLLHIGNIEMKMTRNDASLSSEEQNLQIACELLGIDPFNFAKWIVKKQIVTRSEKIVTNLNYNQALIARDSVAKFIYSTLFDWLVDNINKTLYDPELDQQDHVFSFIGILDIYGFEHFEKNSFEQFCINYANEKLQQEFNQHVFKLEQEEYVKEEIEWSFIEFSDNQPCIDLIENKLGILSLLDEESRLPSGSDESWASKLYSAFNKPPSNEVFSKPRFGQTKFIVSHYAVDVEYEVEGFIEKNRDSVSLGHLDVFKATTNPIFKQILDNRELRSDDAPEEQNTEKKIMIPARLSQKKPTLGSMFKKSLGELMAIINSTNVHYIRCIKPNSEKKPWEFDNLMVLSQLRACGVLETIRISCAGFPSRWTFDEFVQRYFLLTDYSLWSGILYNPDLPKEAIVNFCQSILDATISDSAKYQIGNTKIFFKAGMLAFLEKLRTNKMNEICIIIQKKIRARYYRLQYLQTMESIKKCQSQIRSLLVRTRVDHELKTRAAILLQTNIRALWKREYYRAAIGQIIKLQCTCKRKLILDSVNRKFMLMAAVIIQSYIRSYGHKTDYRTLKRSSILVQSAMRMQLARRRYIVLQKEVEERNIRASYGIGLLEEAIEFKNSFILNLEMLNDSYTRLTQLLQGDLSNIPSKQRQEYETIVNGYNDKISKLKTLQVEIMNTLNKKNALKERKKKQSSLIQSHMQSLAAIKGNKPSRLSDEVKSMKQELAFIENVIAQDFTTTYSANKNDKVKGLGIAGQQVKPKLVNVIRRESGNPDLLELLMDLNCYTLEVTEGYLKKVNVTEVNGDNVLGPIHVITTVVSSLVRNGLLIQSSKFISKVLLTVESIVMSLPKDETMLGGIFWLSNLSRLPAFAANQKTLYEANGGDEKDKLTLIYLNDLENETLKVFDKIYSTWLVKFMKHASAHIEIFDMVLNEKLFKNSGDEKFAKLFTFLNEFDAVLCKFQVVDSMHTKIFNDTLKYLNVMLFNDLITKCPALNWKYGYEVDRNIERLVSWFEPRIEDVRPNLIQIIQAVKILQLKISNLNEFKLLFDFWYALNPAQIQAILLKYKPANKGEAGVPNEILNYLANVIKRENLSLPGKMEIMLSAQFDSAKNHLRYDTSAITQNSNTEGLATVSKIIKLDRK
modifications: GST-HisX6 tag
notes: yeast class V myosin heavy chain, GST-HisX6 fusion
With B1 the “PI(4)P” value was 36.58.

B2: CMK1: yeast calcium/calmodulin-dependent serine/threonine protein kinase, GST-HisX6 fusion (protein)
chain: MDDKVSEKESSPKQTEEDSEGKMAHVQPASYVNKKKYVFGKTLGAGTFGVVRQAKNTETGEDVAVKILIKKALKGNKVQLEALYDELDILQRLHHPNIVAFKDWFESKDKFYIITQLAKGGELFDRILKKGKFTEEDAVRILVEILSAVKYMHSQNIVHRDLKPENLLYIDKSDESPLVVADFGIAKRLKSDEELLYKPAGSLGYVAPEVLTQDGHGKPCDIWSIGVITYTLLCGYSAFRAERVQDFLDECTTGEYPVKFHRPYWDSVSNKAKQFILKALNLDPSKRPTAAELLEDPWIICTELKTHNLLPGLKEGLDARQKFRNSVERVRLNMKIQKLRDLYLEQTESDSDFDEGSQANGSVPPLKATDTSQLSKKLSEEEQSKLKSELTSKAFAQLVNTVLAEKEKFLNINRVCSSDSDLPGSDIKSLDEAKEKPEGKDTKTEE
modifications: left off: a dimerising Fc or GST
notes: yeast calcium/calmodulin-dependent serine/threonine protein kinase, GST-HisX6 fusion
For B2, the “PI(4)P” value was 105.39.
